The values below come from patent US20120141504A1 (MAYO FOUNDATION FOR MEDICAL EDUCATION AND RESEARCH, published 2012).

The target of this assay is T1, human B7-H3.1 expressed on 293 cells transfected with pcDNA/B7-H3 (human, UniProt Q5ZPR3 29-534).
T1 sequence: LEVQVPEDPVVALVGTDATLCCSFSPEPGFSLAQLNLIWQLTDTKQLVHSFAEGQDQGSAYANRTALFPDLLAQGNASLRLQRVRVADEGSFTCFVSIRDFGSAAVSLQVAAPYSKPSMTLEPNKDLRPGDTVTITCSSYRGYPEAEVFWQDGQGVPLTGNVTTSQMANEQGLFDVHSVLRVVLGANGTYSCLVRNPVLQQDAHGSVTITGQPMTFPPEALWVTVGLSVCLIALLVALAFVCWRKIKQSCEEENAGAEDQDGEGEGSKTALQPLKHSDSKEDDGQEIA
The experiment in a line: flow cytometry on transfected 293 cells. For orientation: A flow cytometer gives signals particle by particle.

Method: After a 45 min incubation, cells were washed and cultured for 45 min with fluorescein isothiocyanate (FITC)-conjugated goat anti-mouse Ig F(ab′)₂ (BioSource, Camarillo, Calif.). For two color staining, cells were washed and further incubated with phycoerythrin (PE)-conjugated mAb specific for CD3, CD14, or CD19 (PharMingen, San Diego, Calif.). For the analysis of CD3+, CD19+, and CD 14+ cells, peripheral blood mononuclear cells (PBMC) (untreated or activated as described below) were stained with anti-B3-H7 antiserum (green fluorescence) and either anti-CD3, anti-CD19, or anti-CD14 monoclonal antibody (mAb) (orange fluorescence). The proportion of B7-H3 expressing cells (green fluorescence) within the CD3+, the CD19+, and the CD 14+ populations was assessed by gating the flow cytometer on the relevant populations (orange fluorescence). Expression of a B7-H3 counter-receptor was analyzed by incubation of cells with B7-H3Ig (5 μg/sample) with subsequent staining using FITC-conjugated goat anti-mouse Ig F(ab′)₂. Single or double stained cells were analyzed using the Becton Dickinson FACScan (Mountain View, Calif.).

B1: ICOSIg fusion protein (Fc fusion, UniProt Q9Y6W8 21-140, looked up)
chain: EINGSANYEMFIFHNGGVQILCKYPDIVQQFKMQLLKGGQILCDLTKTKGSGNTVSIKSLKFCHSQLSNNSVSFFLYNLDHSHANYYFCNLSIFDPPPFKVTLTGGYLHIYESQLCCQLK
notes: extracellular domain; Described as an analogous fusion protein prepared by a method similar to that for B7-H3Ig (extracellular domain fused to mouse IgG2a Fc); not shown: Fc constant region of mouse IgG2a
As for B1, the binding result is given as “no binding (tested: 5 µg/sample)”.
